The source of these data is patent US20180037644A1 (Pfizer, published 2018).

Assay [1] addresses T1, human IL-33 WT (R&D) (human, UniProt O95760 112-270).
T1 construct: R&D Systems Cat. No. 3625-IL/CF, wild-type cysteines; DTT pretreatment in some assays is said under assay or readout; also called IL-33 (R&D); hIL-33 (R&D)
T1 sequence: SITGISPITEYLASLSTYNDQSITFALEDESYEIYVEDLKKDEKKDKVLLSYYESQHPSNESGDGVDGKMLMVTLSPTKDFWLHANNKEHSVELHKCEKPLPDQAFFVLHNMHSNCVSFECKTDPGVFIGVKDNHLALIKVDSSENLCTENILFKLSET
In words: SPR, Fab captured by anti-human Fab kit, reduced IL-33 (R&D) in solution; captured Fab, reduced WT IL-33 in solution. In general terms: Surface plasmon resonance follows binding to a sensor surface in real time, without labels.

Assay [2] concerns the target T2, human IL-33 (mm2) (human, UniProt O95760 112-270).
T2 construct: Variant in which all four cysteine residues are serine; the entry carries an N-terminal Met and a C-terminal His6; Biotinylated in some assays; also called hIL-33 (mm2); huIL-33 (mm2)
T2 chain: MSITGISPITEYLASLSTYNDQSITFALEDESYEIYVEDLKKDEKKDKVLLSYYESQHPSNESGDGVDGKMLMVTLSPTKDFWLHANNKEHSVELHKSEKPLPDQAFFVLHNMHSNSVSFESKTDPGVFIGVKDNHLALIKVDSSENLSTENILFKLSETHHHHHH
The assay can be described thus: SPR, biotinylated IL-33 on streptavidin sensor, Fab in solution; immobilized IL-33 (mm2); Fab in solution. The procedure:
(§1) Surface plasmon resonance experiments were conducted in two formats.

Assay [3] deals with T1, human IL-33 WT (R&D). In words: SPR, Fab captured by anti-human Fab kit, reduced IL-33 (R&D) in solution. The procedure:
Fab fragment affinity was measured by two methods, surface plasmon resonance using a BIAcore instrument, with either Fab or IL-33 captured on the chip, and solution equilibrium affinity measurements using a KinExA instrument, with both Fab and IL-33 in solution.
as §1

The target in a further assay is IL-1β (UniProt P01584 117-269). In words: SPR (Biacore T200), Fab captured on the chip, cytokine injected. An excerpt: (§2) The panel of cytokines included IL-1α, IL-1β, IL-18, IL-36α, and IL-36γ.
The target of the next assay is T3, IL-18 (UniProt Q14116 37-193).
T3 sequence (looked up): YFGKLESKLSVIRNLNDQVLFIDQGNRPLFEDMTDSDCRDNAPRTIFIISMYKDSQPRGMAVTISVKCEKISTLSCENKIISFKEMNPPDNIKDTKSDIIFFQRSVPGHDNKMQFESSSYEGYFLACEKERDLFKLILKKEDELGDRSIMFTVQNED
Described as above.
Text: as §2

The next assay addresses T4, IL-1α (UniProt P01583 113-271).
T4 sequence (looked up): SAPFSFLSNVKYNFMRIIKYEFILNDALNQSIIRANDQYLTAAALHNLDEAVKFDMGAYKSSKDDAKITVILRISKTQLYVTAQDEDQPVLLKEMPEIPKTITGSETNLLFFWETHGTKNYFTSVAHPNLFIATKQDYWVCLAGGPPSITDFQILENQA
The description is as above.
Text: as §2

The target in a further assay is T5, IL-36γ (UniProt Q9NZH8 18-169).
T5 sequence (looked up): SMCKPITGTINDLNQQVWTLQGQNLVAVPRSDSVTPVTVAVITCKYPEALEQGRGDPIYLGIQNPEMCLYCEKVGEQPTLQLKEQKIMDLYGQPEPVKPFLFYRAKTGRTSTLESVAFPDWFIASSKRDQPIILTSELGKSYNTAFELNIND
Described as above.
Text: as §2

The target of a further assay is T6, IL-36α (UniProt Q9UHA7 6-158).
T6 sequence (looked up): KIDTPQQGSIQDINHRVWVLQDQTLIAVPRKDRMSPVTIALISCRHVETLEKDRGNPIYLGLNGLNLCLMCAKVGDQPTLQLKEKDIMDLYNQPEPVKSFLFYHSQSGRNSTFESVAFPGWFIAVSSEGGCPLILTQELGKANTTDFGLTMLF
The description is as above.
Text: as §2

Assay [4] addresses T7, human IL-33 WT, reduced with DTT (human, UniProt O95760 112-270).
T7 construct: Wild-type cysteines, FLAG tag in the entry; reduced with 3 mM DTT before use; also called huIL33 wt; hu IL-33 (WT + DTT)
T7 sequence: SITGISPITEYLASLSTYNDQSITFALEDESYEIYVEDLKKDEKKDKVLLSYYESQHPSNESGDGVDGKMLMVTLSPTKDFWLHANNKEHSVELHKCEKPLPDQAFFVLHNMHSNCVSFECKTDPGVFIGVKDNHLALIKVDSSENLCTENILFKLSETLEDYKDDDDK
In words: KinExA, fixed-antigen format, both partners in solution. The procedure: (§3) HuIL33 wt was reduced in 3 mM DTT for a minimum of two hrs prior to use. Affinity determinations were made at room temperature using the fixed antigen assay format. Equilibrium binding was achieved by incubation at 25° C. for 72 hrs. Data analysis was performed with the KinExA Pro software version 3.6.5 (Sapidyne). […] The “drift correction” was used when appropriate. Multiple curves were obtained, both receptor and KD controlled, in independent experiments and analyzed using the “n-curve analysis” tool to obtain global best fit values for the KD and active concentration. The software reports each best fit value along with a 95% confidence interval.
(§4) Table 13. Affinity determinations were made using the fixed-antigen assay format. […] The 95% confidence interval, shown in parentheses with the kD, and percent error are calculated by KinExA software based on a least-squares fit of the theoretical binding equation to the measured signals.
(In general: Kinetic exclusion samples the free partner from a solution-phase mixture.)

For assay [5], the target named is T2, human IL-33 (mm2). The description is as above. The procedure: as §3, §4

B1: 7E8 CDR graft Fab (Fab, V domains shown)
VH: EVQLVESGGGLVQPGGSLRLSCAASGFTFSSYWMYWVRQAPGKGLEWVASITPNGGNTYYPDSVKGRFTISRDNAKNSLYLQMNSLRAEDTAVYYCARGHYYYTSYSLGYWGQGTLVTVSS
VL: DIQMTQSPSSLSASVGDRVTITCKASQNINKHLDWYQQKPGKAPKLLIYFTNNLQTGVPSRFSGSGSGTDFTLTISSLQPEDFATYYCFQYNNGWTFGGGTKVEIKR
notes: also called 7E8 Fab; CDR grafted-7E8 Fab
On to B1, for which the kon (commonly the second-order rate constant of association) was 2.06e+06 M⁻¹ s⁻¹ with human IL-33 WT (R&D) [1] and 5.47e+06 M⁻¹ s⁻¹ with human IL-33 (mm2) [2]. Moreover, the dissociation constant (Kd) – broadly, a measure of binding affinity in units of concentration – was 290 pM in the assay with human IL-33 WT (R&D) [3], 4.04 pM in [4] and 0.351 pM with human IL-33 (mm2) [5]. The koff (commonly a measure of how fast the partners let go of each other) with human IL-33 WT (R&D) [3] was 0.000377 s⁻¹. For the same molecule, the binding result in the assay with IL-1β, in the assay with IL-18, in the assay with IL-1α, with IL-36γ and with IL-36α was “no binding” each time.
